Test results taken from paper PMC6212790, “How bacterial xenogeneic silencer rok distinguishes foreign from self DNA in its resident genome” (Nucleic Acids Research, 2018).
Numbering of substitutions follows the chain as printed.

Assays:
[1] = molecular target: the molecule itself; test: SEC; gel filtration on a GE HiLoad 16/600 Superdex 75 preparation grade column; elution volumes compared with cytochrome C (12.4 kD) and the void volume
[2] = molecular target: T1, Rok-C102-185 (Bacillus subtilis subsp. subtilis str. …, UniProt O34857 102-185); test: NMR HSQC; ITC: sodium phosphate buffer, 200 mM NaCl, pH 6, 277 K, 50 uM protein in cell, 750 uM Seq1 DNA; NMR samples: 50 mM sodium phosphate, 50 mM NaCl, pH 6.0; conditions: protein: recombinant, tags: C-terminal His6, blunt
T1 sequence: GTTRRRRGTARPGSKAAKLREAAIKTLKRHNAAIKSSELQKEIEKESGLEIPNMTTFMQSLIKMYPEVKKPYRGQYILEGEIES

[3] = molecular target: T2, Rok-C97-191 (Bacillus subtilis subsp. subtilis str. …, UniProt O34857 97-191); test: NMR titration; ITC: sodium phosphate buffer, 200 mM NaCl, pH 6, 277 K, 50 uM protein in cell, 750 uM Seq1 DNA; NMR samples: 50 mM sodium phosphate, 50 mM NaCl, pH 6.0; conditions: protein: recombinant; tags: C-terminal His6; blunt, self-complementary 12 bp
T2 sequence: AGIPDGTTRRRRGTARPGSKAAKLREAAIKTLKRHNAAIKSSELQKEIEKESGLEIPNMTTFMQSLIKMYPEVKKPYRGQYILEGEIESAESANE

[4] = molecular target: T3, Rok-C114-185 R174A (Bacillus subtilis subsp. subtilis str. …, UniProt O34857 114-185, R174A); test: ITC; ITC: sodium phosphate buffer, 200 mM NaCl, pH 6, 277 K, 50 uM protein in cell titrated with 750 uM Seq1 DNA; PBM: buffer not stated; conditions: protein: recombinant; tags: C-terminal His6; blunt, self-complementary 18 bp
T3 sequence: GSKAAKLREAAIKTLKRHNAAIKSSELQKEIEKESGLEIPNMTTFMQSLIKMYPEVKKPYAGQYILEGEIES

[5] = molecular target: T4, Rok-C114-185 K164A (Bacillus subtilis subsp. subtilis str. …, UniProt O34857 114-185, K164A); test: as above; conditions: protein: recombinant; tags: C-terminal His6; blunt, self-complementary 18 bp
T4 sequence: T3 sequence with K51A, A61R

[6] = molecular target: T1, Rok-C102-185; test: as above; conditions: protein: recombinant; tags: C-terminal His6; blunt, self-complementary 18 bp
[7] = molecular target: T5, Rok-C114-185 T157A (Bacillus subtilis subsp. subtilis str. …, UniProt O34857 114-185, T157A); test: as above; conditions: protein: recombinant; tags: C-terminal His6; blunt, self-complementary 18 bp
T5 sequence: T3 sequence with T44A, A61R

[8] = molecular target: T6, Rok-C114-185 K116A (Bacillus subtilis subsp. subtilis str. …, UniProt O34857 114-185, K116A); test: as above; conditions: protein: recombinant; tags: C-terminal His6; blunt, self-complementary 18 bp
T6 sequence: T3 sequence with K3A, A61R

[9] = molecular target: T7, Rok-C114-185 T156A (Bacillus subtilis subsp. subtilis str. …, UniProt O34857 114-185, T156A); test: as above; conditions: protein: recombinant; tags: C-terminal His6; blunt, self-complementary 18 bp
T7 sequence: T3 sequence with T43A, A61R

[10] = molecular target: T8, Rok-C114-185 K136A (Bacillus subtilis subsp. subtilis str. …, UniProt O34857 114-185, K136A); test: as above; conditions: protein: recombinant; tags: C-terminal His6; blunt, self-complementary 18 bp
T8 sequence: T3 sequence with K23A, A61R

[11] = molecular target: T9, Rok-C114-185 K171A (Bacillus subtilis subsp. subtilis str. …, UniProt O34857 114-185, K171A); test: as above; conditions: protein: recombinant; tags: C-terminal His6; blunt, self-complementary 18 bp
T9 sequence: T3 sequence with K58A, A61R

[12] = molecular target: T10, Rok-C114-185 (Bacillus subtilis subsp. subtilis str. …, UniProt O34857 114-185); test: as above; conditions: protein: recombinant; tags: C-terminal His6; blunt, self-complementary 18 bp
T10 sequence: T3 sequence with A61R

[13] = molecular target: T3, Rok-C114-185 R174A; test: ITC; ITC: sodium phosphate buffer, 200 mM NaCl, pH 6, 277 K, 50 uM protein in cell, 750 uM Seq1 DNA; NMR samples: 50 mM sodium phosphate, 50 mM NaCl, pH 6.0; conditions: protein: recombinant; tags: C-terminal His6; blunt, self-complementary 18 bp
[14] = molecular target: T7, Rok-C114-185 T156A; test: as above; conditions: protein: recombinant; tags: C-terminal His6; blunt, self-complementary 18 bp

B1: Rok-N^1-95 (N-terminal domain of Rok, residues 1-95) (domain or fragment, B. subtilis subsp. subtilis str. 168, UniProt O34857 1-95, looked up)
chain: MFNEREALRLRLEQLNEAEVKVIREYQIERDKIYAKLRELDRNGSPSEIKKDFRSEKKPDSLPVLAELAAQEIRSYQPQSQQQSVQPQLQSISSL
notes: Rok of Bacillus subtilis subsp. subtilis str; cloned into pET-21a(+) NdeI/XhoI; source: E. coli Rosetta (DE3), purified (Ni-NTA, size exclusion chromatography)
Does B1 bind [1]?
Result: binds

B2: Rok (full-length Rok protein, Bacillus subtilis subsp. subtilis str. 168) (natural protein, B. subtilis subsp. subtilis str. 168, UniProt O34857 1-191, looked up)
chain: MFNEREALRLRLEQLNEAEVKVIREYQIERDKIYAKLRELDRNGSPSEIKKDFRSEKKPDSLPVLAELAAQEIRSYQPQSQQQSVQPQLQSISSLPAGIPDGTTRRRRGTARPGSKAAKLREAAIKTLKRHNAAIKSSELQKEIEKESGLEIPNMTTFMQSLIKMYPEVKKPYRGQYILEGEIESAESANE
notes: Rok, xenogeneic silencer of Bacillus subtilis subsp. subtilis str; cloned into pET-21a(+) NdeI/XhoI; size of the higher order oligomer not determined; source: E. coli Rosetta (DE3), purified (Ni-NTA, size exclusion chromatography)
Does B2 bind [1]?
Result: binds

B3: 8AT (dsDNA)
DNA 1: CATATATATATATATATG
DNA 2: CATATATATATATATATG
Does B3 bind ([2]; self-complementary 18 bp)?
Result: binds

B4: 3AT (dsDNA)
DNA 1: CGCATATATGCG
DNA 2: CGCATATATGCG
Does B4 bind ([2]; self-complementary 12 bp)?
Result: binds

Does B4 bind [3]?
Result: binds

B5: Seq1 (dsDNA)
DNA 1: CTAATAACTAGTTATTAG
DNA 2: CTAATAACTAGTTATTAG
With B5 as the binder, how does the Kd [4] read?
Its Kd is 89 ± 42 µM.

And the Kd [5]?
The Kd was 30.9 ± 2.9 µM.

What about the Kd [6] of the same binder?
The Kd was 7.9 ± 1.3 µM.

What about the Kd [7] of the same binder?
The Kd was 15 ± 1.9 µM.

What about the Kd [8] of the same binder?
The Kd was 42.9 ± 8.1 µM.

What about the Kd [9] of the same binder?
Its Kd is 42.9 ± 7.1 µM.

What about the Kd [10] of the same binder?
Its Kd is 39.4 ± 6.4 µM.

What about the Kd [11] of the same binder?
Its Kd is 110 ± 35 µM.

What about the Kd [12] of the same binder?
The Kd was 19.7 ± 2.7 µM.

What about the Kd [13] of the same binder?
The Kd was 89 ± 42 µM.

And the Kd [14]?
The Kd was 42.9 ± 7.1 µM.
